Test results taken from the supplement of paper PMC7125110.
± gives the standard error. Fewer inactive variants are shown than the library holds.

B1: glmS ribozyme (parent)
chain: AUAAAAGCGCCAGAACUACAGAAAUGUAGUUGACGAGGAGGAGGUUUAUCGAAUUUUCGGCGGAUGCCUCCAAA

Key:
Details in all cases: with glucosamine-6-phosphate
glucosamine-6-phosphate [1] = variants of: B1; assay: self-cleavage kobs at 40 uM GlcN6P; higher = faster cleavage; RNA array
Summary of the method: (§1)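 E. coli RNA polymerase transcribed barcoded ribozyme variants in situ on sequenced MiSeq chips, which were tracked via a hybridised Cy3 probe at 37 °C. Tiles were imaged over ~14 h after glucosamine-6-phosphate (40 μM to 10 mM) in HEPES/KCl/Mg(OAc)2 buffer was flowed in. Normalised per-tile medians were fit to one- or two-exponential decays for kobs, and kcat and KM came from weighted Michaelis–Menten fits.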

glucosamine-6-phosphate [2] = variants of: B1; assay: self-cleavage kobs at 160 uM GlcN6P; higher = faster cleavage; RNA array
Summary of the method: as §1

glucosamine-6-phosphate [3] = variants of: B1; assay: self-cleavage kobs at 2500 uM GlcN6P; higher = faster cleavage; RNA array
Summary of the method: as §1

glucosamine-6-phosphate [4] = variants of: B1; assay: self-cleavage kobs at 10000 uM GlcN6P; higher = faster cleavage; RNA array
Summary of the method: as §1

glucosamine-6-phosphate [5] = variants of: B1; assay: self-cleavage kobs at 640 uM GlcN6P; higher = faster cleavage; RNA array
Summary of the method: as §1

| Variant | self-cleavage kobs at 40 uM GlcN6P (glucosamine-6-phosphate [1]) [s⁻¹] | self-cleavage kobs at 160 uM GlcN6P (glucosamine-6-phosphate [2]) [s⁻¹] | self-cleavage kobs at 2500 uM GlcN6P (glucosamine-6-phosphate [3]) [s⁻¹] | self-cleavage kobs at 10000 uM GlcN6P (glucosamine-6-phosphate [4]) [s⁻¹] | self-cleavage kobs at 640 uM GlcN6P (glucosamine-6-phosphate [5]) [s⁻¹] |
| --- | --- | --- | --- | --- | --- |
| A53U U65A | 4.97e-05 ± 1.8e-05 | 7.52e-05 ± 2.1e-05 | 0.00238 ± 0.00058 | 0.00253 ± 0.00061 |  |
| A52G A64U | < 1e-05 | < 1e-05 |  |  |  |
| A52U A64G C70A | < 1e-05 |  |  |  |  |
| C58G G59U | < 1e-05 | < 1e-05 | < 1e-05 | < 1e-05 | < 1e-05 |
| U57G G60U | < 1e-05 | < 1e-05 | < 1e-05 |  | < 1e-05 |
| G51A C58A | < 1e-05 |  |  | < 1e-05 | < 1e-05 |
| G59C C70U | < 1e-05 |  |  |  | < 1e-05 |
| G51C C58G | < 1e-05 |  |  |  |  |
| U54C C70A | 3e-05 ± 1.2e-05 | 5.86e-05 ± 2.8e-05 | 0.000512 ± 0.00011 | 0.000206 ± 2.9e-05 | 0.000124 ± 2.4e-05 |
| U56C C61U C71U | < 1e-05 |  |  |  |  |
| A53C G59A | < 1e-05 |  |  |  | < 1e-05 |
| C50G C68U | 0.000168 ± 2.2e-05 | 0.000233 ± 4.2e-05 | 0.000189 ± 2e-05 | 0.000128 ± 1.3e-05 | 0.00021 ± 2.4e-05 |
| C50G C68G | 0.00159 ± 0.00078 |  | 0.000142 ± 1.2e-05 | 6.8e-05 ± 4.8e-06 | 0.000121 ± 1.1e-05 |
| C50G C67U C68U C71U | 0.000172 ± 4.1e-05 |  | 0.000127 ± 3e-05 | 7.29e-05 ± 1.3e-05 | 0.000393 ± 0.00011 |
| U56A C61U | < 1e-05 | < 1e-05 |  |  |  |
| A52U G59U | < 1e-05 | < 1e-05 |  | < 1e-05 | < 1e-05 |
| G51C U69C | < 1e-05 |  | < 1e-05 | < 1e-05 |  |
| U49C C70A | < 1e-05 |  |  |  |  |
| U55C C68G | < 1e-05 |  |  | < 1e-05 |  |
| G51C C58U C68A | < 1e-05 |  |  |  |  |
| A52G U57G | 5.61e-05 ± 1.6e-05 | 0.000188 ± 6.1e-05 | 0.00103 ± 0.00019 | 0.00397 ± 0.00056 | 0.000523 ± 0.00014 |
| U54G U69C | 0.00112 ± 0.00028 | 0.000153 ± 6e-05 | 0.00133 ± 0.00041 | 0.00526 ± 0.0011 | 0.000689 ± 0.00017 |
